Laboratory results reported in patent US20200385427.

T1: R9-PCP
T1 chain: RRRRRRRRRXDEXLI

T2: cFΦR4-PCP (not fully specified)
T2 chain: FXRRRRQXDEXLI

T3: Antp-PCP
T3 chain: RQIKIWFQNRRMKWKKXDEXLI

T4: peptide 7 (Table 10)
T4 chain: RRRRRRRRRDXXDX

T5: peptide 6 (Table 10)
T5 chain: RRRRXFDXXD


Columns and labels:
R9-PCP = target: T1, R9-PCP
cFΦR4-PCP = target: T2, cFΦR4-PCP
Antp-PCP = target: T3, Antp-PCP
peptide 7 (Table 10) = target: T4, peptide 7 (Table 10)
peptide 6 (Table 10) = target: T5, peptide 6 (Table 10)

Row | Protein | kcat/KM (dephosphorylation of pCAP peptide) (R9-PCP) | kcat/KM (dephosphorylation of pCAP peptide) (cFΦR4-PCP) | kcat/KM (dephosphorylation of pCAP peptide) (Antp-PCP) | decrease of substrate activity relative to peptide 3 (peptide 7 (Table 10)) | decrease of substrate activity relative to peptide 3 (peptide 6 (Table 10))
1 | SHP2 (protein) AETTDKVKQGFWEEFETLQQQECKLLYSRKEGQRQENKNKNRYKNILPFDHTRVVLHDGDPNEPVSDYINANIIMPEFETKCNNSKPKKSYIATQGCLQNTVNDFWRMVFQENSRVIVMTTKEVERGKSKCVKYWPDEYALKEYGVMRVRNVKESAAHDYTLRELKLSKVGQGNTERTVWQYHFRTWPDHGVPSDPGGVLDFLEEVHHKQESIMDAGPVVVHCSAGIGRTGTFIVIDILIDIIREKGVDCDIDVPKTIQMVRSQRSGMVQTEAQYRFIYMAVQHYIETLQRRI | 248 M⁻¹ s⁻¹ | 7400 M⁻¹ s⁻¹ | 2210 M⁻¹ s⁻¹ |  | 
2 | VHR (protein) MSGSFELSVQDLNDLLSDGSGCYSLPSQPCNEVTPRIYVGNASVAQDIPKLQKLGITHVLNAAEGRSFMHVNTNANFYKDSGITYLGIKANDTQEFNLSAYFERAADFIDQALAQKNGRVLVHCREGYSRSPTLVIAYLMMRQKMDVKSALSIVRQNREIGPNDGFLAQLCQLNDRLAKEGKLKP | 6240 M⁻¹ s⁻¹ | 2460 M⁻¹ s⁻¹ | 2030 M⁻¹ s⁻¹ |  | 
3 | Caspase-3, Human, recombinant protein (protein) SGISLDNSYKMDYPEMGLCIIINNKNFHKSTGMTSRSGTDVDAANLRETFRNLKYEVRNKNDLTREEIVELMRDVSKEDHSKRSSFVCVLLSHGEEGIIFGTNGPVDLKKITNFFRGDRCRSLTGKPKLFIIQACRGTELDCGIETDSGVDDDMACHKIPVEADFLYAYSTAPGYYSWRNSKDGSWFIQSLCAMLKQYADKLEFMHILTRVNRKVATEFESFSFDATFHAKKQIPCIVSMLTKELYFYH |  |  |  | decreased its activity by 53% and 72%, respectively, relative to peptide 3 | decreased its activity by 53% and 72%, respectively, relative to peptide 3
4 | PTPRC (protein) YKIYDLHKKRSCNLDEQQELVERDDEKQLMNVEPIHADILLETYKRKIADEGRLFLAEFQSIPRVFSKFPIKEARKPFNQNKNRYVDILPYDYNRVELSEINGDAGSNYINASYIDGFKEPRKYIAAQGPRDETVDDFWRMIWEQKATVIVMVTRCEEGNRNKCAEYWPSMEEGTRAFGDVVVKINQHKRCPDYIIQKLNIVNKKEKATGREVTHIQFTSWPDHGVPEDPHLLLKLRRRVNAFSNFFSGPIVVHCSAGVGRTGTYIGIDAMLEGLEAENKVDVYGYVVKLRRQRCLMVQVEAQYILIHQALVEYNQFGETEVNLSELHPYLHNMKKRDPPSEPSPLEAEFQRLPSYRSWRTQHIGNQEENKSKNRNSNVIPYDYNRVPLKHELEMSKESEHDSDESSDDDSDSEEPSKYINASFIMSYWKPEVMIAAQGPLKETIGDFWQMIFQRKVKVIVMLTELKHGDQEICAQYWGEGKQTYGDIEVDLKDTDKSSTYTLRVFELRHSKRKDSRTVYQYQYTNWSVEQLPAEPKELISMIQVVKQKLPQKNSSEGNKHHKSTPLLIHCRDGSQQTGIFCALLNLLESAETEEVVDIFQVVKALRKARPGMVSTFEQYQFLYDVIASTYPAQNGQVKKNNHQEDKIEFDNEVDKVKQDANCVNPLGAPEKLPEAKEQAEGSEPTSGTEGPEHSVNGPASPALNQGS | 2940 M⁻¹ s⁻¹ | 35100 M⁻¹ s⁻¹ | 22300 M⁻¹ s⁻¹ |  | 
5 | PTP1B (protein) MEMEKEFEQIDKSGSWAAIYQDIRHEASDFPCRVAKLPKNKNRNRYRDVSPFDHSRIKLHQEDNDYINASLIKMEEAQRSYILTQGPLPNTCGHFWEMVWEQKSRGVVMLNRVMEKGSLKCAQYWPQKEEKEMIFEDTNLKLTLISEDIKSYYTVRQLELENLTTQETREILHFHYTTWPDFGVPESPASFLNFLFKVRESGSLSPEHGPVVVHCSAGIGRSGTFCLADTCLLLMDKRKDPSSVDIKKVLLEMRKFRMGLIQTADQLRFSYLAVIEGAKFIMGDSSVQDQWKELSHEDLEPPPEHIPPPPRPPKRILEPHN | 14700 M⁻¹ s⁻¹ | 37100 M⁻¹ s⁻¹ | 17400 M⁻¹ s⁻¹ |  | 
6 | TCPTP (protein) MPTTIEREFEELDTQRRWQPLYLEIRNESHDYPHRVAKFPENRNRNRYRDVSPYDHSRVKLQNAENDYINASLVDIEEAQRSYILTQGPLPNTCCHFWLMVWQQKTKAVVMLNRIVEKESVKCAQYWPTDDQEMLFKETGFSVKLLSEDVKSYYTVHLLQLENINSGETRTISHFHYTTWPDFGVPESPASFLNFLFKVRESGSLNPDHGPAVIHCSAGIGRSGTFSLVDTCLVLMEKGDDINIKQVLLNMRKYRMGLIQTPDQLRFSYMAIIEGAKCIKGDSSIQKRWKELSKEDLSPAFDHSPNKIMTEKYN | 457 M⁻¹ s⁻¹ | 2780 M⁻¹ s⁻¹ | 970 M⁻¹ s⁻¹ |  | 
